From publication PMC10542344 (Communications Biology, 2023) come the findings set out here.

What is called Kd is the equilibrium constant for the complex coming apart.

Experiment [1] has as its target T1, human IL-17A (recombinant) (human, UniProt Q16552).
T1 construct: human interleukin-17A; also called hIL-17A; source: cell assay: recombinant human IL-17A (Novartis Basel, Switzerland)
Nature of the experiment: SPR; Biacore T100, CM5 chip; tested antibody captured on anti-human IgG to about 500 RU; IL-17A analyte in PBS 0.05% tween, two- or three-fold dilutions, multi-cycle kinetics. The settings on record: both partners purified.

Experiment [2] deals with T1, human IL-17A (recombinant). Put plainly: cell-based or functional assay.
Experiment [3] addresses T2, human IL-2 (Homo sapiens, UniProt P60568).
T2 construct: human interleukin-2; also called hIL-2
Put plainly: ELISA; polyspecificity assay; plates coated with 5 μg/ml antigen, blocked with PBS 0.5% BSA; 100 nM antibody 1 h at RT; anti-human Fc-HRP. The settings on record: both partners purified.

The target of experiment [4] is T3, BSA (Bos taurus, UniProt P02769).
T3 construct: bovine serum albumin, printed only as BSA; a BSA coating is not described
T3 sequence (P02769 25-607): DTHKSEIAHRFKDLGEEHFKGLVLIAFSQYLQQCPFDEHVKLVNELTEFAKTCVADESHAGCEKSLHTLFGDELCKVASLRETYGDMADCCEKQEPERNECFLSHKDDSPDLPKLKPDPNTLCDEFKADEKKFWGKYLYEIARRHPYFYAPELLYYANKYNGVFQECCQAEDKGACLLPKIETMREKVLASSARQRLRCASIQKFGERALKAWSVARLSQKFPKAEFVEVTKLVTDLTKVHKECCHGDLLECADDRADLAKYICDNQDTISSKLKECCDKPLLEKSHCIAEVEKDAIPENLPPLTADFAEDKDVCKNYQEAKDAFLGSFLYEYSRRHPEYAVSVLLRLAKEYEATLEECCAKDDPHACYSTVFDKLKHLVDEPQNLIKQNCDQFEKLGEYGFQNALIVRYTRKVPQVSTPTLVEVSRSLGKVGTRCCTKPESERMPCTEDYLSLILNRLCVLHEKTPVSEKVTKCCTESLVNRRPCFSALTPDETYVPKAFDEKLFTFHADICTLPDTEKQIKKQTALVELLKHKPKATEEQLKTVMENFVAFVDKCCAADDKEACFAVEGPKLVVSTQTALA
Described as above. The settings on record: both partners purified.

Experiment [5] concerns the target T4, hTNFR2 (Homo sapiens, UniProt P20333).
T4 construct: human TNF receptor 2
Described as above. The settings on record: both partners purified.

The target in experiment [6] is T5, insulin (Homo sapiens (assumed), UniProt P01308).
T5 construct: insulin B chain; insulin A chain
T5 sequence (P01308 whole entry, looked up): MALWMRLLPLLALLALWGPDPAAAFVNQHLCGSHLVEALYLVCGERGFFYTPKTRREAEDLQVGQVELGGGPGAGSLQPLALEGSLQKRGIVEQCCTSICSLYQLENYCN
The description is as above. The note with it: both partners purified.

In experiment [7] the target is T6, recombinant human IL-1β (Homo sapiens).
T6 construct: human interleukin-1 beta; also called IL-1b
Put plainly: crystal structure; AAL160 Fab with a 1.5-fold excess of recombinant human IL-1β, complex purified by SEC; 3.30 Å. The note with it: both partners purified.

The target in experiment [8] is T7, biotinylated human IL-17A (Homo sapiens, UniProt Q16552, biotin (site not stated)).
T7 construct: human interleukin-17A; also called hIL-17A; biotinylated IL-17A
T7 sequence (Q16552 24-155): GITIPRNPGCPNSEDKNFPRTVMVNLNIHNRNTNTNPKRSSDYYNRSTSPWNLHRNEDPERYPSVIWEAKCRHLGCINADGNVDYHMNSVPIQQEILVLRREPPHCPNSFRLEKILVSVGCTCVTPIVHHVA
Put plainly: flow cytometry on cells; scFv displayed on yeast EBY-100; incubated with soluble antigen (biotinylated human IL-17A in PBS 0.1% BSA, 1 h), labelled with anti-Myc-FITC (expression) and streptavidin-APC (binding). The settings on record: one partner purified.

The target in experiment [9] is T8, IL-1β (used in the yeast display FACS analysis) (Homo sapiens, UniProt P01584).
T8 construct: interleukin-1 beta; Species is said only of the IL-1β of the crystal (human)
The experiment is described as above. The note with it: one partner purified.

Substitutions are numbered along the chain they refer to. Names and notes keep the numbering of the source.

T4 sequence (P20333 23-461): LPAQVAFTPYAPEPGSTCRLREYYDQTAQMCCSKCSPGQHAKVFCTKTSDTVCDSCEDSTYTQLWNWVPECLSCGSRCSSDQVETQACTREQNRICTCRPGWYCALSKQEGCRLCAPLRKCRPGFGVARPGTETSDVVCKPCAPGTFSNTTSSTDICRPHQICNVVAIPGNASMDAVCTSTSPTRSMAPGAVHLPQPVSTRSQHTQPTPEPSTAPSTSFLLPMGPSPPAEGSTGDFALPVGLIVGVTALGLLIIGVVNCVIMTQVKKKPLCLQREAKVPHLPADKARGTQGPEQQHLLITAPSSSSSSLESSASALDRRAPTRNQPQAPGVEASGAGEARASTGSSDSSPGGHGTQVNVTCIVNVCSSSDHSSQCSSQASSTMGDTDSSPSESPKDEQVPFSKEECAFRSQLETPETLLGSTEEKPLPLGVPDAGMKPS
T1 sequence (Q16552 24-155): as the sequence (Q16552 24-155) above
T2 sequence (P60568 21-153): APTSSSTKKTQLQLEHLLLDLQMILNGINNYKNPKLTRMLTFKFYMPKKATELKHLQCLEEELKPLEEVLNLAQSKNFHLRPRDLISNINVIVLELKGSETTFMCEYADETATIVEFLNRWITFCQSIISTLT

B1: BDG11.001 (clone 11.4C_11.001 as soluble human IgG1) (antibody, V domains shown)
VH: EVQLVQSGAEVKKPGESLKISCKGSGYSFTSYWIGWVRQMPGKGLEWMGIIYPSDSDTRYSPSFQGQVTISADKSISTAYLQWSSLKASDTAMYYCARYPNYGAFDIWGQGTMVTVSS
VL: EIVLTQSPATLSLSPGERATLSCRASQSVWSYLAWYQQKPGQAPRLLIYDASNRATGIPARFSGSGSGTDFTLTISSLEPEDFAVYYCQQYFYWGWPFGQGTKLEIK
notes: as the VH of m6 (clone 11.4C_11.001); the same heavy chain stands in 11.003 (PDB 7Z2M); changes are against the VH of AAL160; human IgG1 heavy-chain constant region, from the plasmid pSF-CMV-HuIgG1_HC; as the VL of m6 (clone 11.4C_11.001); has W30, Y93, W94; the light chain of 11.003 in PDB 7Z2M differs from it at position 30 (Phe for Trp); as in the light chain of 11.003 in PDB 7Z2M; IgG1; also …
As to B1, in experiment [1], the Kd came out at 0.75 nM. In experiment [2], the “IC50 of inhibition of IL-17A dependent IL-6 secretion by BJ fibroblasts (1 nM IL-17A; blocks IL-17A binding to IL-17RA on the cells)” value came out at 4.8 nM. The binding result in [3], in experiment [4], in [5] and in experiment [6] was “no binding (tested: 100 nM antibody)” each time.

B2: BDG11.007 (human IgG1) (antibody, V domains shown)
VH: B1 VH
VL: B1 VL with Y93N
notes: as the VH of m7 (BDG11.001); human IgG1 heavy-chain constant region, from the plasmid pSF-CMV-HuIgG1_HC; as the VL of m7 (BDG11.001) with one substitution; light-chain numbering; as in the light chain of 11.003 in PDB 7Z2M; IgG1; single mutant of BDG11.001; source: Expi-CHO, transfected, purified from the supernatant (protein A beads); copies: 2 + 2
Take B2: the “IC50 of inhibition of IL-17A dependent IL-6 secretion by BJ fibroblasts (1 nM IL-17A; blocks IL-17A binding to IL-17RA on the cells)” value in experiment [2] amounted to 286 nM. The binding result in [3], in experiment [4], in [5] and in [6] was “no binding (tested: 100 nM antibody)” in each case.

B3: AAL160 Fab (Fab, V domains shown)
VH: B1 VH with P100T, Y102W, G103D
VL: B1 VL with W30S, Y91R, F92S, Y93N, G95M, W96F
notes: Fab heavy-chain fragment of AAL160 after papain digestion; light chain of AAL160; also called parent AAL160 Fab; source: papain digestion of AAL160 at 37 °C, Fab purified over Protein A Sepharose Fast Flow
As for B3, the binding result in experiment [7] is “binds”.

B4: clone 11.1_C5 scFv displayed on yeast (scFv, V domains shown)
VH: B1 VH with P100T, A104N
VL: B1 VL with S31W, Y91G, G95P
notes: as the VH of m1 (AAL160) with changes; three repeats of the G4S linker between VH and VL; as the VL of m1 (AAL160) with changes; First-generation clone from library A_11.1; source: yeast surface display, EBY-100, induced with galactose
Regarding B4, the binding result was “binds” in [8] and “no binding” in experiment [9].

B5: AAL160 scFv displayed on yeast (scFv, V domains shown)
VH: B1 VH with P100T, Y102W, G103D
VL: B1 VL with W30S, Y91R, F92S, Y93N, G95M, W96F
notes: VH of AAL160; also held by the deposited AAL160 Fab structures; three repeats of the G4S linker between VH and VL; VL of AAL160; scFv in heavy to light-chain orientation; VH 99% identical to IGHV5-51*01, VL 100% identical to IGKV3-11*01; also called template antibody; anti-IL-1β antibody; source: yeast surface display, EBY-100, induced with galactose
In the case of B5, the binding result in experiment [8] is listed as “no binding”; in experiment [9], “binds”.

B6: clone 11.4_C13 scFv displayed on yeast (scFv, V domains shown)
VH: B1 VH with P100T, G103E
VL: B1 VL with Y91S, G95P, W96F
notes: as the VH of m1 (AAL160) with changes; has no T100P; three repeats of the G4S linker between VH and VL; as the VL of m1 (AAL160) with changes; source: yeast surface display, EBY-100, induced with galactose
As for B6, the binding result in experiment [8] was “binds”.

B7: BDG11.004 (human IgG1) (antibody, V domains shown)
VH: B1 VH
VL: B1 VL with W30S
notes: as for B2
On to B7, for which the “IC50 of inhibition of IL-17A dependent IL-6 secretion by BJ fibroblasts (1 nM IL-17A; blocks IL-17A binding to IL-17RA on the cells)” value in [2] worked out at 163 nM. For the same molecule, the binding result in experiment [3], in [4], in [5] and in experiment [6] was “no binding (tested: 100 nM antibody)” throughout.

B8: clone 11.4_C12 scFv displayed on yeast (scFv, V domains shown)
VH: B1 VH
VL: B1 VL with G95S
notes: as the VH of m1 (AAL160) with changes in CDR H3; three repeats of the G4S linker between VH and VL; as the VL of m1 (AAL160) with changes; has W30, Y93 and W94 (light-chain numbering); also called 114_R5_C12; source: yeast surface display, EBY-100, induced at 37 to 40 °C
In the case of B8, in experiment [8], the binding result is reported as “binds”.

B9: clone 11.1_C3 scFv displayed on yeast (scFv, V domains shown)
VH: B1 VH with P100T, A104N
VL: B1 VL with Y91G, G95P
notes: as the VH of m1 (AAL160) with changes in CDR H3; numbers count on the scFv; three repeats of the G4S linker between VH and VL; as the VL of m1 (AAL160) with changes in CDR L1 and L3; First-generation clone from library A_11.1; nine mutations against AAL160, eight in H3 and L3 and one in L1; source: yeast surface display, EBY-100, induced with galactose
Consider B9, for which the binding result in [8] is given as “binds”; in [9] it was “no binding”.

B10: BDG11.006 (human IgG1) (antibody, V domains shown)
VH: B1 VH
VL: B1 VL with W94N
notes: as for B2
Take B10: the “IC50 of inhibition of IL-17A dependent IL-6 secretion by BJ fibroblasts (1 nM IL-17A; blocks IL-17A binding to IL-17RA on the cells)” value in [2] came out at 50.5 nM. For the same molecule, the binding result in experiment [3], in experiment [4], in [5] and in experiment [6] was “no binding (tested: 100 nM antibody)” each time.

B11: BDG11.003 (human IgG1) (antibody, V domains shown)
VH: B1 VH
VL: B1 VL with W30F
notes: as the VH of m7 (BDG11.001); human IgG1 heavy-chain constant region, from the plasmid pSF-CMV-HuIgG1_HC; as the VL of m7 (BDG11.001) with W30F; that 11.003 is the W30F variant follows from the sentence that 11.003 has Phe30 in L1 where AAL160 has Ser; light-chain numbering; IgG1; seven mutations against AAL160; source: Expi-CHO, transfected, purified from the supernatant (protein A beads); …
In the case of B11, the “IC50 of inhibition of IL-17A dependent IL-6 secretion by BJ fibroblasts (1 nM IL-17A; blocks IL-17A binding to IL-17RA on the cells)” value in experiment [2] came to 33.9 nM. Further, the binding result in [3], in experiment [4], in experiment [5] and in [6] was “no binding (tested: 100 nM antibody)” each time.
